Assay results taken from the MegaScale stability set (Tsuboyama et al. 2023).

B1: 5KPH (parent)
chain: EEKRQVKQVAKEKLLEQSPNSKVQVRRVQKQGNTIRVELELRTNGKKENYTVEVERQGNTWTVKRITRT

Variants of: B1
Test: folding stability dG (cDNA display proteolysis); higher = more stable
Conditions: PBS, room temperature

Row | Variant | folding stability dG [kcal/mol]
1 | EEKRYVKQVAKEKLLEQSPNSKVQVRRVQKQGNTIRVELELRTNGKKENYTVEVERQGNTWTVKRITRT [Q5Y] | 3.64
2 | EEKRQAKQVAKEKLLEQSPNSKVQVRRVQKQGNTIRVELELRTNGKKENYTVEVERQGNTWTVKRITRT [V6A] | 4.84
3 | EEKRQCKQVAKEKLLEQSPNSKVQVRRVQKQGNTIRVELELRTNGKKENYTVEVERQGNTWTVKRITRT [V6C] | 3.31
4 | EEKRQDKQVAKEKLLEQSPNSKVQVRRVQKQGNTIRVELELRTNGKKENYTVEVERQGNTWTVKRITRT [V6D] | 1.95
5 | EEKRQEKQVAKEKLLEQSPNSKVQVRRVQKQGNTIRVELELRTNGKKENYTVEVERQGNTWTVKRITRT [V6E] | 2.28
6 | EEKRQFKQVAKEKLLEQSPNSKVQVRRVQKQGNTIRVELELRTNGKKENYTVEVERQGNTWTVKRITRT [V6F] | 2.99
7 | EEKRQGKQVAKEKLLEQSPNSKVQVRRVQKQGNTIRVELELRTNGKKENYTVEVERQGNTWTVKRITRT [V6G] | 3.48
8 | EEKRQHKQVAKEKLLEQSPNSKVQVRRVQKQGNTIRVELELRTNGKKENYTVEVERQGNTWTVKRITRT [V6H] | 2.57
9 | EEKRQIKQVAKEKLLEQSPNSKVQVRRVQKQGNTIRVELELRTNGKKENYTVEVERQGNTWTVKRITRT [V6I] | 4.24
10 | EEKRQKKQVAKEKLLEQSPNSKVQVRRVQKQGNTIRVELELRTNGKKENYTVEVERQGNTWTVKRITRT [V6K] | 2.05
11 | EEKRQLKQVAKEKLLEQSPNSKVQVRRVQKQGNTIRVELELRTNGKKENYTVEVERQGNTWTVKRITRT [V6L] | 3.46
12 | EEKRQMKQVAKEKLLEQSPNSKVQVRRVQKQGNTIRVELELRTNGKKENYTVEVERQGNTWTVKRITRT [V6M] | 3.03
13 | EEKRQNKQVAKEKLLEQSPNSKVQVRRVQKQGNTIRVELELRTNGKKENYTVEVERQGNTWTVKRITRT [V6N] | 1.92
14 | EEKRQPKQVAKEKLLEQSPNSKVQVRRVQKQGNTIRVELELRTNGKKENYTVEVERQGNTWTVKRITRT [V6P] | 3.55
15 | EEKRQQKQVAKEKLLEQSPNSKVQVRRVQKQGNTIRVELELRTNGKKENYTVEVERQGNTWTVKRITRT [V6Q] | 2.78
16 | EEKRQRKQVAKEKLLEQSPNSKVQVRRVQKQGNTIRVELELRTNGKKENYTVEVERQGNTWTVKRITRT [V6R] | 1.97
17 | EEKRQSKQVAKEKLLEQSPNSKVQVRRVQKQGNTIRVELELRTNGKKENYTVEVERQGNTWTVKRITRT [V6S] | 3.37
18 | EEKRQTKQVAKEKLLEQSPNSKVQVRRVQKQGNTIRVELELRTNGKKENYTVEVERQGNTWTVKRITRT [V6T] | 2.66
19 | EEKRQWKQVAKEKLLEQSPNSKVQVRRVQKQGNTIRVELELRTNGKKENYTVEVERQGNTWTVKRITRT [V6W] | 3.61
20 | EEKRQYKQVAKEKLLEQSPNSKVQVRRVQKQGNTIRVELELRTNGKKENYTVEVERQGNTWTVKRITRT [V6Y] | 3.13
21 | EEKRQVCQVAKEKLLEQSPNSKVQVRRVQKQGNTIRVELELRTNGKKENYTVEVERQGNTWTVKRITRT [K7C] | 4.11
22 | EEKRQVDQVAKEKLLEQSPNSKVQVRRVQKQGNTIRVELELRTNGKKENYTVEVERQGNTWTVKRITRT [K7D] | 3.14
23 | EEKRQVEQVAKEKLLEQSPNSKVQVRRVQKQGNTIRVELELRTNGKKENYTVEVERQGNTWTVKRITRT [K7E] | 4.5
24 | EEKRQVFQVAKEKLLEQSPNSKVQVRRVQKQGNTIRVELELRTNGKKENYTVEVERQGNTWTVKRITRT [K7F] | 4.07
25 | EEKRQVGQVAKEKLLEQSPNSKVQVRRVQKQGNTIRVELELRTNGKKENYTVEVERQGNTWTVKRITRT [K7G] | 4.38
26 | EEKRQVHQVAKEKLLEQSPNSKVQVRRVQKQGNTIRVELELRTNGKKENYTVEVERQGNTWTVKRITRT [K7H] | 3.57

Row | Variant | folding stability dG [kcal/mol]
27 | EEKRQVIQVAKEKLLEQSPNSKVQVRRVQKQGNTIRVELELRTNGKKENYTVEVERQGNTWTVKRITRT [K7I] | 4.82
28 | EEKRQVLQVAKEKLLEQSPNSKVQVRRVQKQGNTIRVELELRTNGKKENYTVEVERQGNTWTVKRITRT [K7L] | 4.49
29 | EEKRQVMQVAKEKLLEQSPNSKVQVRRVQKQGNTIRVELELRTNGKKENYTVEVERQGNTWTVKRITRT [K7M] | 4.8
30 | EEKRQVNQVAKEKLLEQSPNSKVQVRRVQKQGNTIRVELELRTNGKKENYTVEVERQGNTWTVKRITRT [K7N] | 3.39
31 | EEKRQVPQVAKEKLLEQSPNSKVQVRRVQKQGNTIRVELELRTNGKKENYTVEVERQGNTWTVKRITRT [K7P] | 2.66
32 | EEKRQVQQVAKEKLLEQSPNSKVQVRRVQKQGNTIRVELELRTNGKKENYTVEVERQGNTWTVKRITRT [K7Q] | 4.19
33 | EEKRQVRQVAKEKLLEQSPNSKVQVRRVQKQGNTIRVELELRTNGKKENYTVEVERQGNTWTVKRITRT [K7R] | 3.85
34 | EEKRQVSQVAKEKLLEQSPNSKVQVRRVQKQGNTIRVELELRTNGKKENYTVEVERQGNTWTVKRITRT [K7S] | 4.63
35 | EEKRQVTQVAKEKLLEQSPNSKVQVRRVQKQGNTIRVELELRTNGKKENYTVEVERQGNTWTVKRITRT [K7T] | 4.58
36 | EEKRQVVQVAKEKLLEQSPNSKVQVRRVQKQGNTIRVELELRTNGKKENYTVEVERQGNTWTVKRITRT [K7V] | 4.86
37 | EEKRQVYQVAKEKLLEQSPNSKVQVRRVQKQGNTIRVELELRTNGKKENYTVEVERQGNTWTVKRITRT [K7Y] | 3.86
38 | EEKRQVKAVAKEKLLEQSPNSKVQVRRVQKQGNTIRVELELRTNGKKENYTVEVERQGNTWTVKRITRT [Q8A] | 3.76
39 | EEKRQVKCVAKEKLLEQSPNSKVQVRRVQKQGNTIRVELELRTNGKKENYTVEVERQGNTWTVKRITRT [Q8C] | 3.49
40 | EEKRQVKDVAKEKLLEQSPNSKVQVRRVQKQGNTIRVELELRTNGKKENYTVEVERQGNTWTVKRITRT [Q8D] | 3.67
41 | EEKRQVKEVAKEKLLEQSPNSKVQVRRVQKQGNTIRVELELRTNGKKENYTVEVERQGNTWTVKRITRT [Q8E] | 3.74
42 | EEKRQVKFVAKEKLLEQSPNSKVQVRRVQKQGNTIRVELELRTNGKKENYTVEVERQGNTWTVKRITRT [Q8F] | 3.03
43 | EEKRQVKGVAKEKLLEQSPNSKVQVRRVQKQGNTIRVELELRTNGKKENYTVEVERQGNTWTVKRITRT [Q8G] | 3.2
44 | EEKRQVKHVAKEKLLEQSPNSKVQVRRVQKQGNTIRVELELRTNGKKENYTVEVERQGNTWTVKRITRT [Q8H] | 3.62
45 | EEKRQVKIVAKEKLLEQSPNSKVQVRRVQKQGNTIRVELELRTNGKKENYTVEVERQGNTWTVKRITRT [Q8I] | 3.76
46 | EEKRQVKKVAKEKLLEQSPNSKVQVRRVQKQGNTIRVELELRTNGKKENYTVEVERQGNTWTVKRITRT [Q8K] | 4.16
47 | EEKRQVKLVAKEKLLEQSPNSKVQVRRVQKQGNTIRVELELRTNGKKENYTVEVERQGNTWTVKRITRT [Q8L] | 3.51
48 | EEKRQVKMVAKEKLLEQSPNSKVQVRRVQKQGNTIRVELELRTNGKKENYTVEVERQGNTWTVKRITRT [Q8M] | 3.59
49 | EEKRQVKNVAKEKLLEQSPNSKVQVRRVQKQGNTIRVELELRTNGKKENYTVEVERQGNTWTVKRITRT [Q8N] | 3.57
50 | EEKRQVKPVAKEKLLEQSPNSKVQVRRVQKQGNTIRVELELRTNGKKENYTVEVERQGNTWTVKRITRT [Q8P] | 2.29
51 | EEKRQVKRVAKEKLLEQSPNSKVQVRRVQKQGNTIRVELELRTNGKKENYTVEVERQGNTWTVKRITRT [Q8R] | 3.92
52 | EEKRQVKSVAKEKLLEQSPNSKVQVRRVQKQGNTIRVELELRTNGKKENYTVEVERQGNTWTVKRITRT [Q8S] | 3.55

Row | Variant | folding stability dG [kcal/mol]
53 | EEKRQVKTVAKEKLLEQSPNSKVQVRRVQKQGNTIRVELELRTNGKKENYTVEVERQGNTWTVKRITRT [Q8T] | 3.51
54 | EEKRQVKVVAKEKLLEQSPNSKVQVRRVQKQGNTIRVELELRTNGKKENYTVEVERQGNTWTVKRITRT [Q8V] | 3.31
55 | EEKRQVKWVAKEKLLEQSPNSKVQVRRVQKQGNTIRVELELRTNGKKENYTVEVERQGNTWTVKRITRT [Q8W] | 2.56
56 | EEKRQVKYVAKEKLLEQSPNSKVQVRRVQKQGNTIRVELELRTNGKKENYTVEVERQGNTWTVKRITRT [Q8Y] | 2.78
57 | EEKRQVKQAAKEKLLEQSPNSKVQVRRVQKQGNTIRVELELRTNGKKENYTVEVERQGNTWTVKRITRT [V9A] | 3.39
58 | EEKRQVKQCAKEKLLEQSPNSKVQVRRVQKQGNTIRVELELRTNGKKENYTVEVERQGNTWTVKRITRT [V9C] | 3.28
59 | EEKRQVKQDAKEKLLEQSPNSKVQVRRVQKQGNTIRVELELRTNGKKENYTVEVERQGNTWTVKRITRT [V9D] | 1.82
60 | EEKRQVKQEAKEKLLEQSPNSKVQVRRVQKQGNTIRVELELRTNGKKENYTVEVERQGNTWTVKRITRT [V9E] | 2.33
61 | EEKRQVKQFAKEKLLEQSPNSKVQVRRVQKQGNTIRVELELRTNGKKENYTVEVERQGNTWTVKRITRT [V9F] | 3.82
62 | EEKRQVKQGAKEKLLEQSPNSKVQVRRVQKQGNTIRVELELRTNGKKENYTVEVERQGNTWTVKRITRT [V9G] | 1.81
63 | EEKRQVKQHAKEKLLEQSPNSKVQVRRVQKQGNTIRVELELRTNGKKENYTVEVERQGNTWTVKRITRT [V9H] | 2.88
64 | EEKRQVKQIAKEKLLEQSPNSKVQVRRVQKQGNTIRVELELRTNGKKENYTVEVERQGNTWTVKRITRT [V9I] | 4.22
65 | EEKRQVKQKAKEKLLEQSPNSKVQVRRVQKQGNTIRVELELRTNGKKENYTVEVERQGNTWTVKRITRT [V9K] | 3.39
66 | EEKRQVKQLAKEKLLEQSPNSKVQVRRVQKQGNTIRVELELRTNGKKENYTVEVERQGNTWTVKRITRT [V9L] | 4.16
67 | EEKRQVKQMAKEKLLEQSPNSKVQVRRVQKQGNTIRVELELRTNGKKENYTVEVERQGNTWTVKRITRT [V9M] | 3.83
68 | EEKRQVKQNAKEKLLEQSPNSKVQVRRVQKQGNTIRVELELRTNGKKENYTVEVERQGNTWTVKRITRT [V9N] | 2.18
69 | EEKRQVKQPAKEKLLEQSPNSKVQVRRVQKQGNTIRVELELRTNGKKENYTVEVERQGNTWTVKRITRT [V9P] | 1.9
70 | EEKRQVKQQAKEKLLEQSPNSKVQVRRVQKQGNTIRVELELRTNGKKENYTVEVERQGNTWTVKRITRT [V9Q] | 3.26
71 | EEKRQVKQRAKEKLLEQSPNSKVQVRRVQKQGNTIRVELELRTNGKKENYTVEVERQGNTWTVKRITRT [V9R] | 3.07
72 | EEKRQVKQSAKEKLLEQSPNSKVQVRRVQKQGNTIRVELELRTNGKKENYTVEVERQGNTWTVKRITRT [V9S] | 2.4
73 | EEKRQVKQTAKEKLLEQSPNSKVQVRRVQKQGNTIRVELELRTNGKKENYTVEVERQGNTWTVKRITRT [V9T] | 3.15
74 | EEKRQVKQWAKEKLLEQSPNSKVQVRRVQKQGNTIRVELELRTNGKKENYTVEVERQGNTWTVKRITRT [V9W] | 2.74
75 | EEKRQVKQYAKEKLLEQSPNSKVQVRRVQKQGNTIRVELELRTNGKKENYTVEVERQGNTWTVKRITRT [V9Y] | 3.38
76 | EEKRQVKQVCKEKLLEQSPNSKVQVRRVQKQGNTIRVELELRTNGKKENYTVEVERQGNTWTVKRITRT [A10C] | 3.26
77 | EEKRQVKQVDKEKLLEQSPNSKVQVRRVQKQGNTIRVELELRTNGKKENYTVEVERQGNTWTVKRITRT [A10D] | 1.8
78 | EEKRQVKQVEKEKLLEQSPNSKVQVRRVQKQGNTIRVELELRTNGKKENYTVEVERQGNTWTVKRITRT [A10E] | 1.78
